The values that follow come from the supplement of paper PMC10567573.

The chains are these.
B1: TBX5 (parent)
chain: YQNHKITQLKIENNPFAKGFRGSD
B2: ZNF263 (parent)
chain: RTHTGEKPYKCTLCGENFSHRSNL
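Further: lentivirally expressed fusions sorted by FACS into six bins by GFP to DsRed ratio, PSI derived from sequencing read proportions per bin multiplied by bin number.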

The variants in the first series derive from B1. Kind of series: protein stability index of a GFP-peptide fusion (GPS, HEK-293T) (PSI 1-6); higher = more stable. The note with it: c terminus: a fixed tail appended.
Take DQNHKITQLKIENNPFAKGFRGSD [Y1D]: the protein stability index is 3.46.

In the case of EQNHKITQLKIENNPFAKGFRGSD [Y1E], the protein stability index stood at 3.58.

For the variant AQNHKITQLKIENNPFAKGFRGSD [Y1A], the protein stability index stood at 3.46.

On to GQNHKITQLKIENNPFAKGFRGSD [Y1G], for which the protein stability index was found to be 3.64.

For the variant QQNHKITQLKIENNPFAKGFRGSD [Y1Q], the protein stability index turned out to be 3.68.

IQNHKITQLKIENNPFAKGFRGSD [Y1I]: the protein stability index is 3.32.

With LQNHKITQLKIENNPFAKGFRGSD [Y1L], the protein stability index came to 3.42.

Take PQNHKITQLKIENNPFAKGFRGSD [Y1P]: the protein stability index amounted to 3.52.

Take FQNHKITQLKIENNPFAKGFRGSD [Y1F]: the protein stability index amounted to 2.48.

With CQNHKITQLKIENNPFAKGFRGSD [Y1C], the protein stability index came out at 3.19.

In the case of RQNHKITQLKIENNPFAKGFRGSD [Y1R], the protein stability index was 3.61.

Consider KQNHKITQLKIENNPFAKGFRGSD [Y1K], for which the protein stability index was determined as 3.91.

Take MQNHKITQLKIENNPFAKGFRGSD [Y1M]: the protein stability index stood at 3.79.

On to HQNHKITQLKIENNPFAKGFRGSD [Y1H], for which the protein stability index was 3.79.

Consider NQNHKITQLKIENNPFAKGFRGSD [Y1N], for which the protein stability index was 3.35.

In another series the parent is B2. The series is described as above. The note with it: c terminus: a fixed tail appended.
As to RTHTGEKPYKCTLCGENFSHWSNL [R21W], the protein stability index was 1.68.

As to RTHTGEKPYKCTLCGENFSHLSNL [R21L], the protein stability index stood at 1.64.

In the case of RTHTGEKPYKCTLCGENFSHGSNL [R21G], the protein stability index is 2.3.

On to RTHTGEKPYKCTLCGENFSHCSNL [R21C], for which the protein stability index worked out at 2.46.

RTHTGEKPYKCTLCGENFSHFSNL [R21F]: the protein stability index was 2.01.

In the case of RTHTGEKPYKCTLCGENFSHHSNL [R21H], the protein stability index amounted to 2.21.

Turning to RTHTGEKPYKCTLCGENFSHPSNL [R21P], the protein stability index amounted to 2.08.

For RTHTGEKPYKCTLCGENFSHDSNL [R21D], the protein stability index came to 3.15.

With RTHTGEKPYKCTLCGENFSHNSNL [R21N], the protein stability index stood at 2.19.

For the variant RTHTGEKPYKCTLCGENFSHSSNL [R21S], the protein stability index was 1.96.

As to RTHTGEKPYKCTLCGENFSHTSNL [R21T], the protein stability index came out at 2.11.

With RTHTGEKPYKCTLCGENFSHYSNL [R21Y], the protein stability index amounted to 1.96.

As to RTHTGEKPYKCTLCGENFSHISNL [R21I], the protein stability index was found to be 1.92.

With RTHTGEKPYKCTLCGENFSHKSNL [R21K], the protein stability index turned out to be 2.13.

RTHTGEKPYKCTLCGENFSHVSNL [R21V]: the protein stability index came to 1.98.

On to RTHTGEKPYKCTLCGENFSHQSNL [R21Q], for which the protein stability index came out at 1.94.

On to RTHTGEKPYKCTLCGENFSHMSNL [R21M], for which the protein stability index was 2.22.

RTHTGEKPYKCTLCGENFSHASNL [R21A]: the protein stability index worked out at 2.59.

As to RTHTGEKPYKCTLCGENFSHESNL [R21E], the protein stability index came out at 2.69.

On to RTHTGEKPYKCTLCGENFSHRSEL [N23E], for which the protein stability index is 2.31.

On to RTHTGEKPYKCTLCGENFSHRSQL [N23Q], for which the protein stability index stood at 1.91.

As to RTHTGEKPYKCTLCGENFSHRSML [N23M], the protein stability index was determined as 2.03.

RTHTGEKPYKCTLCGENFSHRSHL [N23H]: the protein stability index was 1.96.

RTHTGEKPYKCTLCGENFSHRSTL [N23T]: the protein stability index came out at 1.94.

As to RTHTGEKPYKCTLCGENFSHRSSL [N23S], the protein stability index was found to be 2.05.

As for RTHTGEKPYKCTLCGENFSHRSDL [N23D], the protein stability index amounted to 1.88.

On to RTHTGEKPYKCTLCGENFSHRSWL [N23W], for which the protein stability index is 2.55.

As for RTHTGEKPYKCTLCGENFSHRSYL [N23Y], the protein stability index worked out at 1.96.

As for RTHTGEKPYKCTLCGENFSHRSFL [N23F], the protein stability index worked out at 2.23.

As to RTHTGEKPYKCTLCGENFSHRSIL [N23I], the protein stability index was determined as 2.32.

On to RTHTGEKPYKCTLCGENFSHRSKL [N23K], for which the protein stability index came out at 2.17.

In the case of RTHTGEKPYKCTLCGENFSHRSCL [N23C], the protein stability index was found to be 3.48.

Consider RTHTGEKPYKCTLCGENFSHRSGL [N23G], for which the protein stability index was 2.06.

On to RTHTGEKPYKCTLCGENFSHRSAL [N23A], for which the protein stability index turned out to be 2.28.

For the variant RTHTGEKPYKCTLCGENFSHRSRL [N23R], the protein stability index was 2.17.

For the variant RTHTGEKPYKCTLCGENFSHRSVL [N23V], the protein stability index was determined as 1.94.

Take RTHTGEKPYKCTLCGENFSHRSLL [N23L]: the protein stability index stood at 1.69.

Regarding RTHTGEKPYKCTLCGENFSHRSPL [N23P], the protein stability index turned out to be 2.6.

Consider RTHTGEKPYKCTLCGENFSHRSNH [L24H], for which the protein stability index stood at 2.42.

RTHTGEKPYKCTLCGENFSHRSND [L24D]: the protein stability index came out at 2.39.

On to RTHTGEKPYKCTLCGENFSHRSNV [L24V], for which the protein stability index is 2.49.

As for RTHTGEKPYKCTLCGENFSHRSNQ [L24Q], the protein stability index turned out to be 2.33.

On to RTHTGEKPYKCTLCGENFSHRSNN [L24N], for which the protein stability index worked out at 2.37.

Regarding RTHTGEKPYKCTLCGENFSHRSNF [L24F], the protein stability index came to 1.59.

Turning to RTHTGEKPYKCTLCGENFSHRSNT [L24T], the protein stability index was 2.4.

Turning to RTHTGEKPYKCTLCGENFSHRSNC [L24C], the protein stability index amounted to 4.

For RTHTGEKPYKCTLCGENFSHRSNW [L24W], the protein stability index is 1.82.

Take RTHTGEKPYKCTLCGENFSHRSNY [L24Y]: the protein stability index worked out at 1.78.

As for RTHTGEKPYKCTLCGENFSHRSNK [L24K], the protein stability index amounted to 2.63.

Consider RTHTGEKPYKCTLCGENFSHRSNS [L24S], for which the protein stability index came to 2.52.

As for RTHTGEKPYKCTLCGENFSHRSNR [L24R], the protein stability index came to 1.95.

Regarding RTHTGEKPYKCTLCGENFSHRSNP [L24P], the protein stability index stood at 2.33.

Regarding RTHTGEKPYKCTLCGENFSHRSNE [L24E], the protein stability index came to 2.43.

As to RTHTGEKPYKCTLCGENFSHRSNG [L24G], the protein stability index is 2.82.

RTHTGEKPYKCTLCGENFSHRSNI [L24I]: the protein stability index is 2.15.

Consider RTHTGEKPYKCTLCGENFSHRSNM [L24M], for which the protein stability index stood at 1.91.

With RTHTGEKPYKCTLCGENFSHRSNA [L24A], the protein stability index was 2.3.

Consider RTHTGEKPYKCTLCGENFSHRLNL [S22L], for which the protein stability index worked out at 1.94.

Turning to RTHTGEKPYKCTLCGENFSHRANL [S22A], the protein stability index turned out to be 1.83.

As for RTHTGEKPYKCTLCGENFSHRQNL [S22Q], the protein stability index stood at 2.01.

For RTHTGEKPYKCTLCGENFSHRRNL [S22R], the protein stability index came to 2.4.

For the variant RTHTGEKPYKCTLCGENFSHRHNL [S22H], the protein stability index amounted to 2.4.

In the case of RTHTGEKPYKCTLCGENFSHRWNL [S22W], the protein stability index came to 1.44.

RTHTGEKPYKCTLCGENFSHRYNL [S22Y]: the protein stability index came to 1.63.

Take RTHTGEKPYKCTLCGENFSHRPNL [S22P]: the protein stability index is 1.79.

For the variant RTHTGEKPYKCTLCGENFSHRENL [S22E], the protein stability index amounted to 2.23.

In the case of RTHTGEKPYKCTLCGENFSHRGNL [S22G], the protein stability index was 2.14.

On to RTHTGEKPYKCTLCGENFSHRDNL [S22D], for which the protein stability index came out at 2.11.

For the variant RTHTGEKPYKCTLCGENFSHRMNL [S22M], the protein stability index was 2.

RTHTGEKPYKCTLCGENFSHRCNL [S22C]: the protein stability index was 3.19.

With RTHTGEKPYKCTLCGENFSHRINL [S22I], the protein stability index came out at 1.9.

In the case of RTHTGEKPYKCTLCGENFSHRFNL [S22F], the protein stability index came out at 2.

With RTHTGEKPYKCTLCGENFSHRKNL [S22K], the protein stability index was determined as 2.46.

RTHTGEKPYKCTLCGENFSHRVNL [S22V]: the protein stability index came to 1.91.

In the case of RTHTGEKPYKCTLCGENFSHRTNL [S22T], the protein stability index amounted to 1.92.

RTHTGEKPYKCTLCGENFSHRNNL [S22N]: the protein stability index is 2.33.

For the variant RTHTGEKPYKCTLCGENFSWRSNL [H20W], the protein stability index stood at 2.28.

Regarding RTHTGEKPYKCTLCGENFSYRSNL [H20Y], the protein stability index stood at 2.13.

Turning to RTHTGEKPYKCTLCGENFSVRSNL [H20V], the protein stability index was 1.89.
